Data taken from PMC9482650, “Quantitative fragmentomics allow affinity mapping of interactomes” (Nature Communications, 2022).

Columns and labels:
Assay in all cases: holdup assay
Parameters in all cases: key: below the threshold = too weak to quantify, mostly under pKd 3.1 to 4
Conditions in all cases: plain residues with an end cap or a label only (N-terminal biotin on a linker: ado-ado)
APBA1_2, Q02410 = target: T1, APBA1_2, Q02410
T1 sequence (Q02410 742-832, limits assumed, looked up): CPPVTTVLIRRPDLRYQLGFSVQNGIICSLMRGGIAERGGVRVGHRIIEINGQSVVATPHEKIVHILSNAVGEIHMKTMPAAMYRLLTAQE

APBA2_2, Q99767 = target: T2, APBA2_2, Q99767
T2 sequence (Q99767 654-744, limits assumed, looked up): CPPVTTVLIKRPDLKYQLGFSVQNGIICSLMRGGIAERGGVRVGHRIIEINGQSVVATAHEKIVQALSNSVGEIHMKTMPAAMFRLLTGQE

ARHGAP21, Q5T5U3 = target: T3, ARHGAP21, Q5T5U3
T3 sequence (Q5T5U3 45-169, limits assumed, looked up): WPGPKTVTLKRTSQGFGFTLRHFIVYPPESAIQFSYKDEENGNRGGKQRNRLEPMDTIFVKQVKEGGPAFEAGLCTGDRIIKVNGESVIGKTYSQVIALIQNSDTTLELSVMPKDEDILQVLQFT

ARHGEF12, Q9NZN5-2 = target: ARHGEF12, Q9NZN5-2
CASK, O14936 = target: CASK, O14936
DLG1_1, Q12959 = target: DLG1_1, Q12959
DLG2_2, Q15700 = target: DLG2_2, Q15700
DLG4_1, P78352 = target: DLG4_1, P78352
FRMPD2_1, Q68DX3 = target: FRMPD2_1, Q68DX3
FRMPD4, Q14CM0 = target: FRMPD4, Q14CM0
GORASP2, Q9H8Y8 = target: GORASP2, Q9H8Y8
GRID2IP_1, A4D2P6 = target: GRID2IP_1, A4D2P6
GRIP1_4, Q9Y3R0 = target: T4, GRIP1_4, Q9Y3R0
T4 sequence (Q9Y3R0 467-571, limits assumed, looked up): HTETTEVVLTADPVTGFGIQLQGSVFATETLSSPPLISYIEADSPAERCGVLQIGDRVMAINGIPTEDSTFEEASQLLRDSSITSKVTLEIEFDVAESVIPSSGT

GRIP2_3, Q9C0E4 = target: GRIP2_3, Q9C0E4
IL16_4, Q14005 = target: IL16_4, Q14005
Inadl_2, Q8NI35 = target: Inadl_2, Q8NI35
LIMK2, P53671 = target: LIMK2, P53671
MAGI2_4, Q86UL8 = target: MAGI2_4, Q86UL8
MAGI2_6, Q86UL8 = target: MAGI2_6, Q86UL8
MAGI3_2, Q5TCQ9 = target: MAGI3_2, Q5TCQ9
MPP2, Q14168 = target: T5, MPP2, Q14168
T5 sequence (Q14168 180-250, limits assumed, looked up): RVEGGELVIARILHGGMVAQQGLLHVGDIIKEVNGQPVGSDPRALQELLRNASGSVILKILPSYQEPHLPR

MPP6, Q9NZW5 = target: T6, MPP6, Q9NZW5
T6 sequence (Q9NZW5 125-219, limits assumed, looked up): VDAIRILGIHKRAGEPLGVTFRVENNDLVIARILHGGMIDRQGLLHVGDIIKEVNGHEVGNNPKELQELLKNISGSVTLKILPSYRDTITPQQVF

NHERF2_2, Q15599 = target: NHERF2_2, Q15599
NHERF3_3, Q5T2W1 = target: T7, NHERF3_3, Q5T2W1
T7 sequence (Q5T2W1 238-333, limits assumed, looked up): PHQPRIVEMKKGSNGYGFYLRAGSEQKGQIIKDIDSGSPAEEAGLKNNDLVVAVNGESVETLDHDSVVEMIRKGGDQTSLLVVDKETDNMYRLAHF

PCLO, Q9Y6V0 = target: T8, PCLO, Q9Y6V0
T8 sequence (Q9Y6V0 4491-4600, limits assumed, looked up): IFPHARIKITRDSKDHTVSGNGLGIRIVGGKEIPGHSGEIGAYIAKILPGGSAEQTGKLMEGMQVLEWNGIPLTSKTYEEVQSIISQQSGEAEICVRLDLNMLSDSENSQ

PDLIM1, O00151 = target: PDLIM1, O00151
SNTA1, Q13424 = target: T9, SNTA1, Q13424
T9 sequence (Q13424 82-180, limits assumed, looked up): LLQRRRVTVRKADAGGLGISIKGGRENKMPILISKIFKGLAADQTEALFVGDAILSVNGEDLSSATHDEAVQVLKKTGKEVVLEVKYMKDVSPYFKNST

TJP2_1, Q9UDY2 = target: TJP2_1, Q9UDY2
Sequence of TJP2_1, Q9UDY2 (Q9UDY2 24-128): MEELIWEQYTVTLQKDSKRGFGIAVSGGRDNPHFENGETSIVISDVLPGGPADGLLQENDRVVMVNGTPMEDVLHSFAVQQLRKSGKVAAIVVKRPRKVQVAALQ

Sequence of CASK, O14936 (O14936 487-570): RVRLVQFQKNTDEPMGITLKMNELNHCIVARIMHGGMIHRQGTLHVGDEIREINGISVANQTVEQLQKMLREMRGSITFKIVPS
Sequence of MAGI2_4, Q86UL8 (Q86UL8 772-865): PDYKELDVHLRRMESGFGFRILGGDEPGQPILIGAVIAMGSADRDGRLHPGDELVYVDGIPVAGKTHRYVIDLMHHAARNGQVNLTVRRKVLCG
Sequence of LIMK2, P53671 (P53671 143-248): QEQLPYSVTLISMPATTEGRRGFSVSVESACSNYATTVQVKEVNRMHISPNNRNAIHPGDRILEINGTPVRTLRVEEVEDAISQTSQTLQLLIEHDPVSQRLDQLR
Sequence of DLG4_1, P78352 (P78352 62-152): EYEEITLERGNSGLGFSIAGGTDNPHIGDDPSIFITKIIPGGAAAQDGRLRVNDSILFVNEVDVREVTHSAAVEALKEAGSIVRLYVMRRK
Sequence of GRIP2_3, Q9C0E4 (Q9C0E4 238-339): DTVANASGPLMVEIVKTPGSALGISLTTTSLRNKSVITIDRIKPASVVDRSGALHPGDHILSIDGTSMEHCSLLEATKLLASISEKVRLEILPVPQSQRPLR
Sequence of FRMPD4, Q14CM0 (Q14CM0 67-160): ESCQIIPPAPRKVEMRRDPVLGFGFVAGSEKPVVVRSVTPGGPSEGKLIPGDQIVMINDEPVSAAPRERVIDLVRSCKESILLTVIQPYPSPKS
Sequence of NHERF2_2, Q15599 (Q15599 142-238): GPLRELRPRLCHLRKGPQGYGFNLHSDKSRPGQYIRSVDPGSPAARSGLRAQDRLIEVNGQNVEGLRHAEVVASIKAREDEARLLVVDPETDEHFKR
Sequence of FRMPD2_1, Q68DX3 (Q68DX3 770-861): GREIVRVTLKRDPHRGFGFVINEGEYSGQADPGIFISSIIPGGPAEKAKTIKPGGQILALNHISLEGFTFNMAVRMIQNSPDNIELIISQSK
Sequence of Inadl_2, Q8NI35 (Q8NI35 238-335): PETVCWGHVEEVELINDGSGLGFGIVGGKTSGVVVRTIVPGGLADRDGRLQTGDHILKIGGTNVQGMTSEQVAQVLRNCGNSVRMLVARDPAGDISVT
Sequence of MAGI2_6, Q86UL8 (Q86UL8 1141-1229): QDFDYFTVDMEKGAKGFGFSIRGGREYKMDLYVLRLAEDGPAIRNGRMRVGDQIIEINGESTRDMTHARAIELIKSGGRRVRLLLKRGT
Sequence of PDLIM1, O00151 (O00151 1-87): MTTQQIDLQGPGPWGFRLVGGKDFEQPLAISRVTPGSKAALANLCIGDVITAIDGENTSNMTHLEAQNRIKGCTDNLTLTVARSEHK
Sequence of DLG2_2, Q15700 (Q15700 189-283): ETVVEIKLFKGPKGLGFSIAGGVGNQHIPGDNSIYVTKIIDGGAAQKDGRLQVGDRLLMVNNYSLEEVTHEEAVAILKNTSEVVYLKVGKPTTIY
Sequence of IL16_4, Q14005 (Q14005 1229-1329): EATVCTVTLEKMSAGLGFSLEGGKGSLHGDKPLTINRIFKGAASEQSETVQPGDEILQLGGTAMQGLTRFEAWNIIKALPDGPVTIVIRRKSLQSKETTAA
Sequence of ARHGEF12, Q9NZN5-2 (Q9NZN5 other isoform, or with tags, fused parts or gaps): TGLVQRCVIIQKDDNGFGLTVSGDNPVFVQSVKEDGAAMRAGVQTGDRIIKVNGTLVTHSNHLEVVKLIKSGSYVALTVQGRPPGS
Sequence of MAGI3_2, Q5TCQ9 (Q5TCQ9 398-503): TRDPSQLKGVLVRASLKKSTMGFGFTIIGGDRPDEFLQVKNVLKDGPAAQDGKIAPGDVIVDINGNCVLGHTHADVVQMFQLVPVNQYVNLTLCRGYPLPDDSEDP
Sequence of GRID2IP_1, A4D2P6 (A4D2P6 1-87): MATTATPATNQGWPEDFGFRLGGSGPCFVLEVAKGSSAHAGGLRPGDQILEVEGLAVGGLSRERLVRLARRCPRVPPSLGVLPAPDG

SRPRPDDLEI [GJA1, P17302]
pKd (APBA1_2, Q02410): below the threshold
pKd (APBA2_2, Q99767): below the threshold
pKd (ARHGAP21, Q5T5U3): 3.74
pKd (ARHGEF12, Q9NZN5-2): below the threshold
pKd (CASK, O14936): below the threshold
pKd (DLG1_1, Q12959): below the threshold
pKd (DLG2_2, Q15700): below the threshold
pKd (DLG4_1, P78352): below the threshold
pKd (FRMPD2_1, Q68DX3): below the threshold
pKd (FRMPD4, Q14CM0): below the threshold
pKd (GORASP2, Q9H8Y8): below the threshold
pKd (GRID2IP_1, A4D2P6): below the threshold
pKd (GRIP1_4, Q9Y3R0): below the threshold
pKd (GRIP2_3, Q9C0E4): below the threshold
pKd (IL16_4, Q14005): below the threshold
pKd (Inadl_2, Q8NI35): below the threshold
pKd (LIMK2, P53671): below the threshold
pKd (MAGI2_4, Q86UL8): below the threshold
pKd (MAGI2_6, Q86UL8): below the threshold
pKd (MAGI3_2, Q5TCQ9): below the threshold
pKd (MPP2, Q14168): below the threshold
pKd (MPP6, Q9NZW5): 3.62
pKd (NHERF2_2, Q15599): below the threshold
pKd (NHERF3_3, Q5T2W1): below the threshold
pKd (PCLO, Q9Y6V0): below the threshold
pKd (PDLIM1, O00151): below the threshold
pKd (SNTA1, Q13424): below the threshold
pKd (TJP2_1, Q9UDY2): below the threshold

NVYGTESVKI [GRIA3, P42263]
pKd (APBA1_2, Q02410): below the threshold
pKd (APBA2_2, Q99767): below the threshold
pKd (ARHGAP21, Q5T5U3): 4.38
pKd (ARHGEF12, Q9NZN5-2): below the threshold
pKd (CASK, O14936): below the threshold
pKd (DLG1_1, Q12959): below the threshold
pKd (DLG2_2, Q15700): below the threshold
pKd (DLG4_1, P78352): below the threshold
pKd (FRMPD2_1, Q68DX3): below the threshold
pKd (FRMPD4, Q14CM0): below the threshold
pKd (GORASP2, Q9H8Y8): 3.51
pKd (GRID2IP_1, A4D2P6): below the threshold
pKd (GRIP1_4, Q9Y3R0): below the threshold
pKd (GRIP2_3, Q9C0E4): below the threshold
pKd (IL16_4, Q14005): below the threshold
pKd (Inadl_2, Q8NI35): below the threshold
pKd (LIMK2, P53671): below the threshold
pKd (MAGI2_4, Q86UL8): below the threshold
pKd (MAGI2_6, Q86UL8): below the threshold
pKd (MAGI3_2, Q5TCQ9): below the threshold
pKd (MPP2, Q14168): below the threshold
pKd (MPP6, Q9NZW5): below the threshold
pKd (NHERF2_2, Q15599): 3.47
pKd (NHERF3_3, Q5T2W1): below the threshold
pKd (PCLO, Q9Y6V0): below the threshold
pKd (PDLIM1, O00151): below the threshold
pKd (SNTA1, Q13424): below the threshold
pKd (TJP2_1, Q9UDY2): below the threshold

PMESGICTIV [TTC24, A2A3L6]
pKd (APBA1_2, Q02410): 4.75
pKd (APBA2_2, Q99767): below the threshold
pKd (ARHGAP21, Q5T5U3): 3.96
pKd (ARHGEF12, Q9NZN5-2): 4.47
pKd (CASK, O14936): below the threshold
pKd (DLG1_1, Q12959): 4.79
pKd (DLG2_2, Q15700): 4.87
pKd (DLG4_1, P78352): 4.71
pKd (FRMPD2_1, Q68DX3): 3.56
pKd (FRMPD4, Q14CM0): below the threshold
pKd (GORASP2, Q9H8Y8): 4.64
pKd (GRID2IP_1, A4D2P6): below the threshold
pKd (GRIP1_4, Q9Y3R0): below the threshold
pKd (GRIP2_3, Q9C0E4): below the threshold
pKd (IL16_4, Q14005): 3.67
pKd (Inadl_2, Q8NI35): 3.76
pKd (LIMK2, P53671): below the threshold
pKd (MAGI2_4, Q86UL8): 4.53
pKd (MAGI2_6, Q86UL8): 3.86
pKd (MAGI3_2, Q5TCQ9): 4.52
pKd (MPP2, Q14168): below the threshold
pKd (MPP6, Q9NZW5): below the threshold
pKd (NHERF2_2, Q15599): 3.83
pKd (NHERF3_3, Q5T2W1): below the threshold
pKd (PCLO, Q9Y6V0): below the threshold
pKd (PDLIM1, O00151): below the threshold
pKd (SNTA1, Q13424): 4.61
pKd (TJP2_1, Q9UDY2): 3.81

GCQGETEDVL [PTH2R, P49190]
pKd (APBA1_2, Q02410): 3.52
pKd (APBA2_2, Q99767): below the threshold
pKd (ARHGAP21, Q5T5U3): 4.18
pKd (ARHGEF12, Q9NZN5-2): below the threshold
pKd (CASK, O14936): below the threshold
pKd (DLG1_1, Q12959): below the threshold
pKd (DLG2_2, Q15700): below the threshold
pKd (DLG4_1, P78352): 3.51
pKd (FRMPD2_1, Q68DX3): below the threshold
pKd (FRMPD4, Q14CM0): 4.21
pKd (GORASP2, Q9H8Y8): below the threshold
pKd (GRID2IP_1, A4D2P6): below the threshold
pKd (GRIP1_4, Q9Y3R0): below the threshold
pKd (GRIP2_3, Q9C0E4): below the threshold
pKd (IL16_4, Q14005): below the threshold
pKd (Inadl_2, Q8NI35): below the threshold
pKd (LIMK2, P53671): below the threshold
pKd (MAGI2_4, Q86UL8): below the threshold
pKd (MAGI2_6, Q86UL8): below the threshold
pKd (MAGI3_2, Q5TCQ9): below the threshold
pKd (MPP2, Q14168): below the threshold
pKd (MPP6, Q9NZW5): 3.91
pKd (NHERF2_2, Q15599): 4.03
pKd (NHERF3_3, Q5T2W1): below the threshold
pKd (PCLO, Q9Y6V0): below the threshold
pKd (PDLIM1, O00151): below the threshold
pKd (SNTA1, Q13424): 3.9
pKd (TJP2_1, Q9UDY2): below the threshold
